Patent US20220306695A1, “COMPSTATIN ANALOGUES AND THEIR MEDICAL USES” (priority 2019, published 2022)
Starred links: 1 amine or outer side, 2 acyl side, 3 side chain; linkers in the order of their positions; H or OH if unused. Positions of bridges follow the written chain, without caps; N, C: chain ends. Non-standard residues stand in square brackets, D forms with d. Groups on a side chain read outwards from the residue. *: point of attachment. Trp(1-Me) = Cn1cc(C[C@H](N)C(=O)O)c2ccccc21; C18 diacid = O=C(O)CCCCCCCCCCCCCCCCC(=O)*; C16 diacid = O=C(O)CCCCCCCCCCCCCCC(=O)*; γGlu = O=C(O)[C@H](CCC(=O)[*:2])N[*:1]; Sar = CNCC(=O)O

B1: Compound 129 (peptide)
peptide: Ac-SEFCI[Trp(1-Me)]QDWGEHRC[Sar]EGEGGGK([γGlu-Gly-γGlu-C18 diacid])-NH2
modifications: disulfide 4-14
SMILES: CC[C@H](C)[C@@H]1NC(=O)[C@@H](NC(=O)[C@H](Cc2ccccc2)NC(=O)[C@H](CCC(=O)O)NC(=O)[C@H](CO)NC(C)=O)CSSC[C@@H](C(=O)N(C)CC(=O)N[C@@H](CCC(=O)O)C(=O)NCC(=O)N[C@@H](CCC(=O)O)C(=O)NCC(=O)NCC(=O)NCC(=O)N[C@@H](CCCCNC(=O)CC[C@H](NC(=O)CNC(=O)CC[C@H](NC(=O)CCCCCCCCCCCCCCCCC(=O)O)C(=O)O)C(=O)O)C(N)=O)NC(=O)[C@H](CCCNC(=N)N)NC(=O)[C@H](Cc2c[nH]cn2)NC(=O)[C@H](CCC(=O)O)NC(=O)CNC(=O)[C@H](Cc2c[nH]c3ccccc23)NC(=O)[C@H](CC(=O)O)NC(=O)[C@H](CCC(N)=O)NC(=O)[C@H](Cc2cn(C)c3ccccc23)NC1=O
B2: Compound 114 (peptide)
peptide: Ac-SEYCI[Trp(1-Me)]QDWGEHRC[Sar]EGEK([γGlu-Gly-γGlu-C18 diacid])-NH2
modifications: disulfide 4-14
SMILES: CC[C@H](C)[C@@H]1NC(=O)[C@@H](NC(=O)[C@H](Cc2ccc(O)cc2)NC(=O)[C@H](CCC(=O)O)NC(=O)[C@H](CO)NC(C)=O)CSSC[C@@H](C(=O)N(C)CC(=O)N[C@@H](CCC(=O)O)C(=O)NCC(=O)N[C@@H](CCC(=O)O)C(=O)N[C@@H](CCCCNC(=O)CC[C@H](NC(=O)CNC(=O)CC[C@H](NC(=O)CCCCCCCCCCCCCCCCC(=O)O)C(=O)O)C(=O)O)C(N)=O)NC(=O)[C@H](CCCNC(=N)N)NC(=O)[C@H](Cc2c[nH]cn2)NC(=O)[C@H](CCC(=O)O)NC(=O)CNC(=O)[C@H](Cc2c[nH]c3ccccc23)NC(=O)[C@H](CC(=O)O)NC(=O)[C@H](CCC(N)=O)NC(=O)[C@H](Cc2cn(C)c3ccccc23)NC1=O
B3: Compound 131 (peptide)
peptide: Ac-SEFCI[Trp(1-Me)]QDWGEHRCTEGEGGGK([γGlu-Gly-γGlu-C16 diacid])-NH2
modifications: disulfide 4-14
SMILES: CC[C@H](C)[C@@H]1NC(=O)[C@@H](NC(=O)[C@H](Cc2ccccc2)NC(=O)[C@H](CCC(=O)O)NC(=O)[C@H](CO)NC(C)=O)CSSC[C@@H](C(=O)N[C@H](C(=O)N[C@@H](CCC(=O)O)C(=O)NCC(=O)N[C@@H](CCC(=O)O)C(=O)NCC(=O)NCC(=O)NCC(=O)N[C@@H](CCCCNC(=O)CC[C@H](NC(=O)CNC(=O)CC[C@H](NC(=O)CCCCCCCCCCCCCCC(=O)O)C(=O)O)C(=O)O)C(N)=O)[C@@H](C)O)NC(=O)[C@H](CCCNC(=N)N)NC(=O)[C@H](Cc2c[nH]cn2)NC(=O)[C@H](CCC(=O)O)NC(=O)CNC(=O)[C@H](Cc2c[nH]c3ccccc23)NC(=O)[C@H](CC(=O)O)NC(=O)[C@H](CCC(N)=O)NC(=O)[C@H](Cc2cn(C)c3ccccc23)NC1=O
B4: Compound 110 (peptide)
peptide: Ac-EGSAYCI[Trp(1-Me)]QDWGEHRC[Sar]EGKK([γGlu-Gly-γGlu-C18 diacid])-NH2
modifications: disulfide 6-16
SMILES: CC[C@H](C)[C@@H]1NC(=O)[C@@H](NC(=O)[C@H](Cc2ccc(O)cc2)NC(=O)[C@H](C)NC(=O)[C@H](CO)NC(=O)CNC(=O)[C@H](CCC(=O)O)NC(C)=O)CSSC[C@@H](C(=O)N(C)CC(=O)N[C@@H](CCC(=O)O)C(=O)NCC(=O)N[C@@H](CCCCN)C(=O)N[C@@H](CCCCNC(=O)CC[C@H](NC(=O)CNC(=O)CC[C@H](NC(=O)CCCCCCCCCCCCCCCCC(=O)O)C(=O)O)C(=O)O)C(N)=O)NC(=O)[C@H](CCCNC(=N)N)NC(=O)[C@H](Cc2c[nH]cn2)NC(=O)[C@H](CCC(=O)O)NC(=O)CNC(=O)[C@H](Cc2c[nH]c3ccccc23)NC(=O)[C@H](CC(=O)O)NC(=O)[C@H](CCC(N)=O)NC(=O)[C@H](Cc2cn(C)c3ccccc23)NC1=O
B5: Compound 115 (peptide)
peptide: Ac-SEYCI[Trp(1-Me)]QDWGEHRC[Sar]EGKK([γGlu-Gly-γGlu-C18 diacid])-NH2
modifications: disulfide 4-14
SMILES: CC[C@H](C)[C@@H]1NC(=O)[C@@H](NC(=O)[C@H](Cc2ccc(O)cc2)NC(=O)[C@H](CCC(=O)O)NC(=O)[C@H](CO)NC(C)=O)CSSC[C@@H](C(=O)N(C)CC(=O)N[C@@H](CCC(=O)O)C(=O)NCC(=O)N[C@@H](CCCCN)C(=O)N[C@@H](CCCCNC(=O)CC[C@H](NC(=O)CNC(=O)CC[C@H](NC(=O)CCCCCCCCCCCCCCCCC(=O)O)C(=O)O)C(=O)O)C(N)=O)NC(=O)[C@H](CCCNC(=N)N)NC(=O)[C@H](Cc2c[nH]cn2)NC(=O)[C@H](CCC(=O)O)NC(=O)CNC(=O)[C@H](Cc2c[nH]c3ccccc23)NC(=O)[C@H](CC(=O)O)NC(=O)[C@H](CCC(N)=O)NC(=O)[C@H](Cc2cn(C)c3ccccc23)NC1=O
B6: Compound 112 (peptide)
peptide: Ac-SEYCI[Trp(1-Me)]QDWGEHRC[Sar]EGAK([γGlu-Gly-γGlu-C18 diacid])-NH2
modifications: disulfide 4-14
SMILES: CC[C@H](C)[C@@H]1NC(=O)[C@@H](NC(=O)[C@H](Cc2ccc(O)cc2)NC(=O)[C@H](CCC(=O)O)NC(=O)[C@H](CO)NC(C)=O)CSSC[C@@H](C(=O)N(C)CC(=O)N[C@@H](CCC(=O)O)C(=O)NCC(=O)N[C@@H](C)C(=O)N[C@@H](CCCCNC(=O)CC[C@H](NC(=O)CNC(=O)CC[C@H](NC(=O)CCCCCCCCCCCCCCCCC(=O)O)C(=O)O)C(=O)O)C(N)=O)NC(=O)[C@H](CCCNC(=N)N)NC(=O)[C@H](Cc2c[nH]cn2)NC(=O)[C@H](CCC(=O)O)NC(=O)CNC(=O)[C@H](Cc2c[nH]c3ccccc23)NC(=O)[C@H](CC(=O)O)NC(=O)[C@H](CCC(N)=O)NC(=O)[C@H](Cc2cn(C)c3ccccc23)NC1=O
B7: Compound 113 (peptide)
peptide: Ac-ASGEYCI[Trp(1-Me)]QDWGEHRC[Sar]EGEK([γGlu-Gly-γGlu-C18 diacid])-NH2
modifications: disulfide 6-16
SMILES: CC[C@H](C)[C@@H]1NC(=O)[C@@H](NC(=O)[C@H](Cc2ccc(O)cc2)NC(=O)[C@H](CCC(=O)O)NC(=O)CNC(=O)[C@H](CO)NC(=O)[C@H](C)NC(C)=O)CSSC[C@@H](C(=O)N(C)CC(=O)N[C@@H](CCC(=O)O)C(=O)NCC(=O)N[C@@H](CCC(=O)O)C(=O)N[C@@H](CCCCNC(=O)CC[C@H](NC(=O)CNC(=O)CC[C@H](NC(=O)CCCCCCCCCCCCCCCCC(=O)O)C(=O)O)C(=O)O)C(N)=O)NC(=O)[C@H](CCCNC(=N)N)NC(=O)[C@H](Cc2c[nH]cn2)NC(=O)[C@H](CCC(=O)O)NC(=O)CNC(=O)[C@H](Cc2c[nH]c3ccccc23)NC(=O)[C@H](CC(=O)O)NC(=O)[C@H](CCC(N)=O)NC(=O)[C@H](Cc2cn(C)c3ccccc23)NC1=O

Biological target: Human C3 (human, UniProt P01024 23-1663)
Experiment: cell-based or functional assay

Sequence of Human C3 (P01024 23-1663 limits assumed): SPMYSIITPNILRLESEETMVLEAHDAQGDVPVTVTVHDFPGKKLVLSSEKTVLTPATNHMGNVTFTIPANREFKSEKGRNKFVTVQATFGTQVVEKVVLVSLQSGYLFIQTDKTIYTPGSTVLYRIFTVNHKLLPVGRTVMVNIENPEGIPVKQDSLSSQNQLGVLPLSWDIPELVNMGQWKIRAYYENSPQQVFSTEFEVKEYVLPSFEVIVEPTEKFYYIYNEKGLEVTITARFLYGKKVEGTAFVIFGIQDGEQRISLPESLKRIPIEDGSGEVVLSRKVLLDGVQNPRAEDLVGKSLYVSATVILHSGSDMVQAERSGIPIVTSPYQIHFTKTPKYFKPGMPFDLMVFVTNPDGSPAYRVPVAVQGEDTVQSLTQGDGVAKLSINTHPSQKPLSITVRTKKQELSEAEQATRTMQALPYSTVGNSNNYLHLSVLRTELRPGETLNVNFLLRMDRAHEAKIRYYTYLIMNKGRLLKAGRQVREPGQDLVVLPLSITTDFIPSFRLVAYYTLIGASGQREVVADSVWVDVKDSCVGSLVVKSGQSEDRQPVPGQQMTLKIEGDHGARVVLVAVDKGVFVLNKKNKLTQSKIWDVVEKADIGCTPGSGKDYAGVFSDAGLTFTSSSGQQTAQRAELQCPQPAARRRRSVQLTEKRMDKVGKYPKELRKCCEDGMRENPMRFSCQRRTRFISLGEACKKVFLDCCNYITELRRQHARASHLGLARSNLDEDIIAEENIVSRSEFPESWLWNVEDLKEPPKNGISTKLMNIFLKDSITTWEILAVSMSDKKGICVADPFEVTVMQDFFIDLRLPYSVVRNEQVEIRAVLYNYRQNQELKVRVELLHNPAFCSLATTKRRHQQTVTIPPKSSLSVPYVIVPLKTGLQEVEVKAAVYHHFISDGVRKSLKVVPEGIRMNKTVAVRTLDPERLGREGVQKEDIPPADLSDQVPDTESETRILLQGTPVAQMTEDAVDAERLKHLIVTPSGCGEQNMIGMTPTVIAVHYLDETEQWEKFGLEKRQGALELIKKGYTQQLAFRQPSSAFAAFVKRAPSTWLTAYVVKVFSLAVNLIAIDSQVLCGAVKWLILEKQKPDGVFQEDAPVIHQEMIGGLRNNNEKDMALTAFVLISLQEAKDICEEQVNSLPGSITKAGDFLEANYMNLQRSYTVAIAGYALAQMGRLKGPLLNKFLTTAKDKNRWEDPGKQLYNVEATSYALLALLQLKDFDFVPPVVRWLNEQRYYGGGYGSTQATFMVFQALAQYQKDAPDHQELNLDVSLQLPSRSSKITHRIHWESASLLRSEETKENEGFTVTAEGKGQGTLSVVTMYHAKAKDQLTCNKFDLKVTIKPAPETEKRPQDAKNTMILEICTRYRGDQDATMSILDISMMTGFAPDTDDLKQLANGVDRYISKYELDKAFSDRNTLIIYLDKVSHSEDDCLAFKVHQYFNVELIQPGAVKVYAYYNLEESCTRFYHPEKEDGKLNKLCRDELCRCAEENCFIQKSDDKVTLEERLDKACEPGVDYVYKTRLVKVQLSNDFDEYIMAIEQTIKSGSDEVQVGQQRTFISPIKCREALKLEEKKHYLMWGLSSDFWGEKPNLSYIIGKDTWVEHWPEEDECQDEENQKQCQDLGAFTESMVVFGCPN

B1 and Ac-SEYCI[Trp(1-Me)]QDWGEHRC[Sar]EGEK([γGlu-Lys-γGlu-C18 diacid])-NH2 (disulfide 4-14) [Compound 116] cannot be ordered by IC50[nM], inhibition of hemolysis: less than 100 nM for the first, less than 500 nM for the second.

B2 and B3 cannot be ordered by IC50[nM], inhibition of hemolysis: less than 500 nM for the first, less than 100 nM for the second.

B4 and B5 cannot be ordered by IC50[nM], inhibition of hemolysis: less than 250 nM for the first, less than 250 nM for the second.

B6 and B7 cannot be ordered by IC50[nM], inhibition of hemolysis: less than 500 nM for the first, less than 500 nM for the second.
